Assay results reported in patent publication US20040175721A1 (UNIVERSITY OF MASSACHUSETTS A MASSACHUSETTS, published 2004).

B1: human centriolin Nud1 domain (amino acids 127-233 of centriolin) fused to the GAL4 transactivation domain (other, not shown: small tags and cut ends)
chain (part 1 of 2): ANFNQSGNIADSSLSFTFTNSSNGPNLITTQTNSQALSQPIASSNVHDNFMNNEITASKIDDGNNSKPLSPGWTDQTAYNAFGITTGMFNTTTMDDVYNYLFDDEDTPPNPKKE
chain (part 2 of 2): LEVLNLSYNLIGKIEKLDKLLKLRELNLSYNKISKIEGIENMCNLQKLNLAGNEIEHIPVWLGKKLKSLRVLNLKGNKISSLQDISKLKPLQDLISLILVENPVVTL
notes: also called TAD-hNud1; hNud1

How the values were obtained:
[1] = biological target: T1, LexA-tagged budding yeast Bfa1p (pGP122, LexA-BFA1) (budding yeast, UniProt P47113 1-574, limits assumed); experiment: directed yeast two-hybrid
T1 construct: Construct pGP122 obtained from Elmar Schiebel; also called LexA-Bfa1p; not shown: LexA part of the vector
T1 sequence (looked up): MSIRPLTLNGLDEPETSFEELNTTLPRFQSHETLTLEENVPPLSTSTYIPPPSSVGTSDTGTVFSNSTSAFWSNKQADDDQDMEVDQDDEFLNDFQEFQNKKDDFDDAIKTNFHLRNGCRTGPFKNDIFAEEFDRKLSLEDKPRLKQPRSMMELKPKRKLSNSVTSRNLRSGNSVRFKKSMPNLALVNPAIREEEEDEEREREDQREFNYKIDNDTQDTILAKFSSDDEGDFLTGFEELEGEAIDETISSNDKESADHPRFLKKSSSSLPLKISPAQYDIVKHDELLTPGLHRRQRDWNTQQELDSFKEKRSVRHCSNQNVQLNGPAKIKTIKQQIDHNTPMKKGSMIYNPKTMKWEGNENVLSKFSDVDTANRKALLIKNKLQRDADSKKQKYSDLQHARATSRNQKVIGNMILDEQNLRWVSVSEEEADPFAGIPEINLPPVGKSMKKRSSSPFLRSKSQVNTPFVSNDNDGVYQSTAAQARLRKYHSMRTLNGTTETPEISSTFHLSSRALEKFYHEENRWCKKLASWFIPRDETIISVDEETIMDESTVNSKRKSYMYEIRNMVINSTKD
Text: (§1) A 321 base pair fragment containing amino acids 127-233 of centriolin were cloned into EcoR I and Sal I sites of pGADT7 (Clontech) to produce a fusion with the GAL4 transactivation domain (TAD). Constructs pEG202 (LexA), pGP69 (LexA-BUB2), pGP122 (LexA-BFA1) and the yeast strain SGY37 were from Elmar Schiebel (Paterson Institute for Cancer Research, Manchester, U.K.). SGY37, which contains a LacZ reporter gene under control of a LexA operator, was transformed with plasmid DNA using LiAc (Ito et al., J Bacteriol, 153:163-168, 1983) and transformants selected for on dropout medium. Methods used were semi-quantitative β-galactosidase assays (Schramm et al., Methods Cell Biol., 67:71-94, 2001) and more quantitative β-galactosidase assays with CPRG (chlorophenol red-b-D-galactopyranoside, Roche) as a substrate per the manufacturer's instructions (Clontech Yeast Protocols Handbook). Co-immunopreciptation of LexA and GAL4 TAD fusion proteins were carried out as previously described (Schramm et al., Methods Cell Biol., 67:71-94, 2001).

[2] = biological target: T2, LexA-tagged budding yeast Bub2p (pGP69, LexA-BUB2) (budding yeast, UniProt P26448 1-306, limits assumed); experiment: directed yeast two-hybrid, LexA-BUB2 x TAD control
T2 construct: Construct pGP69 obtained from Elmar Schiebel; also called LexA-Bub2p; not shown: LexA part of the pEG202-type vector
T2 sequence (looked up): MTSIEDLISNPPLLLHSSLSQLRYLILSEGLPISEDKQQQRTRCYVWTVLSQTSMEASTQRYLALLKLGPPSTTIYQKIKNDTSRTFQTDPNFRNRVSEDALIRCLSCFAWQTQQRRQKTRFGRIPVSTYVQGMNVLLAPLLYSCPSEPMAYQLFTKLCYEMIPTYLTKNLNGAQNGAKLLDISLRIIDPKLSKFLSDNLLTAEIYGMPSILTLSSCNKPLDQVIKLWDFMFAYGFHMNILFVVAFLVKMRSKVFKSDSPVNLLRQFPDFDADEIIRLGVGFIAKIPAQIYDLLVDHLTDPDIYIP
Text: as §1

[3] = biological target: B1; experiment: directed yeast two-hybrid, TAD-hNud1 x LexA control
Text: as §1

B1
binding result [1]: no binding

B2: GAL4 transactivation domain alone (other, UniProt P04386 768-881, looked up)
chain: ANFNQSGNIADSSLSFTFTNSSNGPNLITTQTNSQALSQPIASSNVHDNFMNNEITASKIDDGNNSKPLSPGWTDQTAYNAFGITTGMFNTTTMDDVYNYLFDDEDTPPNPKKE
notes: also called TAD
binding result [2]: no binding

B3: LexA alone (pEG202) (other, UniProt P0A7C2 1-202, looked up)
chain: MKALTARQQEVFDLIRDHISQTGMPPTRAEIAQRLGFRSPNAAEEHLKALARKGVIEIVSGASRGIRLLQEEEEGLPLVGRVAAGEPLLAQQHIEGHYQVDPSLFKPNADFLLRVSGMSMKDIGIMDGDLLAVHKTQDVRNGQVVVARIDDEVTVKRLKKQGNKVELLPENSEFKPIVVDLRQQSFTIEGLAVGVIRNGDWL
binding result [3]: no binding
